Series [1] has as its system HeLa Kyoto. Description: solubility in G1/S (NP-40 vs SDS abundance) (log2 ratio); higher = more soluble. The settings on record: cell cycle stage: G1/S.
The test system of series [2] is HeLa Kyoto. In words: solubility change mitosis vs G1/S (difference of NP-40 vs SDS log2 ratios) (log2 ratio difference); higher = more soluble in mitosis.
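Wherever solubility change mitosis vs G1/S (difference of NP-40 vs SDS log2 ratios) is given: synchronized HeLa Kyoto cells (double thymidine block for G1/S, nocodazole release for mitosis), protein amounts in NP-40 versus SDS lysates quantified by mass spectrometry, three biological replicates.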
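Wherever solubility in G1/S (NP-40 vs SDS abundance) is given: HeLa Kyoto cells arrested at G1/S by double thymidine block, proteins quantified by TMT10plex mass spectrometry in mild NP-40 versus SDS extracts, three biological replicates.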

Turning to “MACSLQKLFAVEEEFEDEDFLSAVEDAENRFTGSLPVNAGRLRPVSSRPQETVQAQSSRLLLLHPTAPSEALGLPDLDLCLPASSTPSADSRPSCIGAAPLRPVSTSSSWIGNQRRVTVTEVLRETARPQSSALHPLLTFESQQQQVGGFEGPEQDEFDKVLASMELEEPGMELECGVSSEAIPILPAQQREGSVLAKKARVVDLSGSCQKGPVPAIHKAGIMSAQDESLDPVIQCRTPRPPLRPGAVGHLPVPTALTVPTQQLHWEVCPQRSPVQALQPLQAARGTIQSSPQNRFPCQPFQSPSSWLSGKAHLPRPRTPNSSCSTPSRTSSGLFPRIPLQPQAPVSSIGSPVGTPKGPQGALQTPIVTNHLVQLVTAASRTPQQPTHPSTRAKTRRFPGPAGILPHQQSGRSLEDIMVSAPQTPTHGALAKFQTEIVASSQASVEEDFGRGPWLTMKSTLGLDERDPSCFLCTYSIVMVLRKQAALKQLPRNKVPNMAVMIKSLTRSTMDASVVFKDPTGEMQGTVHRLLLETCQNELKPGSVLLLKQIGVFSPSLRNHYLNVTPNNLVHIYSPDSGDGSFLKPSQPFPKDSGSFQHDVAAKPEEGFRTAQNLEAEASPEEELPEADDLDGLLSELPEDFFCGTSS [C17ORF53]”, in series [1], the “solubility in G1/S (log2)” value is 0.384. For the same sequence, the “solubility change mitosis (log2)” value in series [2] came out at 0.0975.

For “MADLHRQLQEYLAQGKAGGPAAAEPLLAAEKAEEPGDRPAEEWLGRAGLRWTWARSPAESAAAGLTCLPSVTRGQRLAAGGGCLLLAALCFGLAALYAPVLLLRARKFALLWSLGSALALAGSALLRGGAACGRLLRCEEAPSRPALLYMAALGATLFAALGLRSTLLTVLGAGAQVAALLAALVGLLPWGGGTALRLALGRLGRGAGLAKVLPV [SFT2D3]”, the “solubility in G1/S (log2)” value in series [1] was -0.165. In series [2], the “solubility change mitosis (log2)” value is -0.136.

For the sequence “MAEGDAGSDQRQNEEIEAMAAIYGEEWCVIDDCAKIFCIRISDDIDDPKWTLCLQVMLPNEYPGTAPPIYQLNAPWLKGQERADLSNSLEEIYIQNIGESILYLWVEKIRDVLIQKSQMTEPGPDVKKKTEEEDVECEDDLILACQPESSLKALDFDISETRTEVEVEELPPIDHGIPITDRRSTFQAHLAPVVCPKQVKMVLSKLYENKKIASATHNIYAYRIYCEDKQTFLQDCEDDGETAAGGRLLHLMEILNVKNVMVVVSRWYGGILLGPDRFKHINNCARNILVEKNYTNSPEESSKALGKNKKVRKDKKRNEH [IMPACT]”, the “solubility in G1/S (log2)” value in series [1] was 0.0693. Further, the “solubility change mitosis (log2)” value in series [2] turned out to be 0.00643.

Regarding “MAEGEGYFAMSEDELACSPYIPLGGDFGGGDFGGGDFGGGDFGGGGSFGGHCLDYCESPTAHCNVLNWEQVQRLDGILSETIPIHGRGNFPTLELQPSLIVKVVRRRLAEKRIGVRDVRLNGSAASHVLHQDSGLGYKDLDLIFCADLRGEGEFQTVKDVVLDCLLDFLPEGVNKEKITPLTLKEAYVQKMVKVCNDSDRWSLISLSNNSGKNVELKFVDSLRRQFEFSVDSFQIKLDSLLLFYECSENPMTETFHPTIIGESVYGDFQEAFDHLCNKIIATRNPEEIRGGGLLKYCNLLVRGFRPASDEIKTLQRYMCSRFFIDFSDIGEQQRKLESYLQNHFVGLEDRKYEYLMTLHGVVNESTVCLMGHERRQTLNLITMLAIRVLADQNVIPNVANVTCYYQPAPYVADANFSNYYIAQVQPVFTCQQQTYSTWLPCN [FAM46A]”, in series [1], the “solubility in G1/S (log2)” value was -0.00125. Also, in series [2], the “solubility change mitosis (log2)” value was -0.172.

As for “MAEHAPRRCCLGWDFSTQQVKVVAVDAELNVFYEESVHFDRDLPEFGTQGGVHVHKDGLTVTSPVLMWVQALDIILEKMKASGFDFSQVLALSGAGQQHGSIYWKAGAQQALTSLSPDLRLHQQLQDCFSISDCPVWMDSSTTAQCRQLEAAVGGAQALSCLTGSRAYERFTGNQIAKIYQQNPEAYSHTERISLVSSFAASLFLGSYSPIDYSDGSGMNLLQIQDKVWSQACLGACAPHLEEKLSPPVPSCSVVGAISSYYVQRYGFPPGCKVVAFTGDNPASLAGMRLEEGDIAVSLGTSDTLFLWLQEPMPALEGHIFCNPVDSQHYMALLCFKNGSLMREKIRNESVSRSWSDFSKALQSTEMGNGGNLGFYFDVMEITPEIIGRHRFNTENHKVAAFPGDVEVRALIEGQFMAKRIHAEGLGYRVMSKTKILATGGASHNREILQVLADVFDAPVYVIDTANSACVGSAYRAFHGLAGGTDVPFSEVVKLAPNPRLAATPSPGASQVYEALLPQYAKLEQRILSQTRGPPE [XYLB]”, the “solubility in G1/S (log2)” value in series [1] was -0.242. Besides, the “solubility change mitosis (log2)” value in series [2] stood at 0.111.

With “MAEKFDHLEEHLEKFVENIRQLGIIVSDFQPSSQAGLNQKLNFIVTGLQDIDKCRQQLHDITVPLEVFEYIDQGRNPQLYTKECLERALAKNEQVKGKIDTMKKFKSLLIQELSKVFPEDMAKYRSIRGEDHPPS [MED10]”, in series [1], the “solubility in G1/S (log2)” value is -0.142. Moreover, the “solubility change mitosis (log2)” value in series [2] amounted to 0.446.

For the origin of these results see the supplement of paper PMC5998384.
